The data set is described as follows: protein stability index of a GFP-peptide fusion (yeast GPS) (PSI 1-4); higher = more stable; sorted into four equal gates, so the index is relative within each strain. The essentials:
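Yeast carrying a pooled library were grown to mid-log phase in leucine-free medium. Each library plasmid expresses Cherry and has a tiled 17-residue yeast protein peptide fused downstream of GFP. Cells were sorted into four equal gates by GFP/Cherry ratio, and plasmids from each gate were PCR-amplified, Illumina-sequenced and assigned to strains by barcode. Summing, across gates, the read frequency times the gate number gave each peptide's protein stability index.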

± gives the uncertainty stated by the source.

With GAKNIEITVVKPDSDIV [PRE6], the protein stability index by setting is: (doa10∆) 2.54 ± 0.047; (pdr5∆) 2.46 ± 0.041; (san1∆) 2.57 ± 0.052; (ubr1∆) 2.67 ± 0.059.

Regarding GALHFVQQSEKLRNEVE [YIL149C/MLP2], the protein stability index turned out to be 3.17 ± 0.14 (doa10∆), 3.16 ± 0.22 (pdr5∆) and 3.16 ± 0.12 (ubr1∆).

Turning to GALQESVEAYLVSLFED [HHT1], the protein stability index by setting is: (doa10∆) 1.42 ± 0.095; (pdr5∆) 2.62 ± 0.12; (san1∆) 2.29 ± 0.12; (ubr1∆) 2.05 ± 0.08.

For the sequence GAMGLLSSAGAKSTVET [RIP1], the protein stability index stood at 2.01 ± 0.12 (doa10∆), 2.46 ± 0.11 (pdr5∆), 2.14 ± 0.18 (san1∆) and 2.35 ± 0.09 (ubr1∆).

For GANPRVLSTFTAEFGKI [RPN10], the protein stability index runs as follows: (doa10∆) 2.14 ± 0.11; (pdr5∆) 2.08 ± 0.1; (san1∆) 2.12 ± 0.2; (ubr1∆) 2.18 ± 0.073.

Consider GAPGANARMPGMPNMPG [SRP54], for which the protein stability index runs as follows: (doa10∆) 3.15 ± 0.083; (pdr5∆) 3.2 ± 0.28; (san1∆) 2.92 ± 0.12; (ubr1∆) 2.9 ± 0.11.

For the sequence GAQIVSKQIFTHPKDTF [ARP9], the protein stability index is, setting by setting: (doa10∆) 2.23 ± 0.069; (pdr5∆) 1.51 ± 0.051; (san1∆) 2.04 ± 0.067; (ubr1∆) 1.68 ± 0.033.

Regarding GARVFGALKGASDGGLY [RPL5], the protein stability index runs as follows: (pdr5∆) 3.34 ± 0.17; (ubr1∆) 3.11 ± 0.19.

Take GASGVDDFQNFFDPKPF [SWI1]: the protein stability index runs as follows: (doa10∆) 2.65 ± 0.065; (pdr5∆) 2.68 ± 0.064; (san1∆) 2.92 ± 0.092; (ubr1∆) 3.11 ± 0.046.

Turning to GASIIQVIFEIFEISLQ [YML103C/NUP188], the protein stability index came to 1.53 ± 0.046 (doa10∆), 1.82 ± 0.044 (pdr5∆), 2.1 ± 0.065 (san1∆) and 2.06 ± 0.043 (ubr1∆).

Turning to GASNGDDSNGGNGEGLG [BRN1], the protein stability index (doa10∆) is 3.42 ± 0.14, the protein stability index (pdr5∆) was 2.83 ± 0.23, the protein stability index (san1∆) was 3.68 ± 0.16 and the protein stability index (ubr1∆) amounted to 3.19 ± 0.084.

Turning to GATSKPAFSFGAKPEEK [YJL041W/NSP1], the protein stability index runs as follows: (doa10∆) 3.05 ± 0.098; (pdr5∆) 3.4 ± 0.092; (san1∆) 3.31 ± 0.074; (ubr1∆) 3.11 ± 0.073.

As to GATVFVNHLLLFAREIA [DPB4], the protein stability index stood at 1.94 ± 0.046 (doa10∆), 1.9 ± 0.04 (pdr5∆), 1.41 ± 0.087 (san1∆) and 1.72 ± 0.039 (ubr1∆).

In the case of GCGNTQPTIRKDGLKLV [RPO21], the protein stability index reads like this: (doa10∆) 2.42 ± 0.084; (pdr5∆) 2.11 ± 0.056; (san1∆) 2.3 ± 0.17; (ubr1∆) 2.41 ± 0.045.

Consider GCIPGNRKRIVTLRKSL [RPL3], for which the protein stability index (doa10∆) was 1.38 ± 0.069, the protein stability index (pdr5∆) came out at 1.5 ± 0.083, the protein stability index (san1∆) came out at 1.6 ± 0.2 and the protein stability index (ubr1∆) turned out to be 1.26 ± 0.061.

Take GCLSVLYQSKGRYMEAL [SRP68]: the protein stability index (doa10∆) worked out at 2.83 ± 0.13, the protein stability index (pdr5∆) stood at 3.04 ± 0.18 and the protein stability index (san1∆) came out at 2.76 ± 0.21.

Take GCVDIDDALHAKKLPNG [DIS3]: the protein stability index came to 3.26 ± 0.059 (doa10∆), 3.23 ± 0.051 (pdr5∆), 3.14 ± 0.04 (san1∆) and 3.14 ± 0.037 (ubr1∆).

Turning to GDHNKLRSTIANLLQIN [YML103C/NUP188], the protein stability index (doa10∆) came to 2.27 ± 0.054, the protein stability index (pdr5∆) amounted to 2.35 ± 0.069, the protein stability index (san1∆) stood at 1.45 ± 0.13 and the protein stability index (ubr1∆) was found to be 1.87 ± 0.035.

With GDIKPEFSPRLHNIWSN [YML103C/NUP188], the protein stability index stood at 3.22 ± 0.14 (doa10∆), 2.98 ± 0.091 (pdr5∆), 3.32 ± 0.11 (san1∆) and 3.51 ± 0.11 (ubr1∆).

Consider GDIKVLDSNFNLQREID [RPN14], for which the protein stability index runs as follows: (doa10∆) 2.96 ± 0.12; (pdr5∆) 3.11 ± 0.091; (san1∆) 2.93 ± 0.085; (ubr1∆) 3.26 ± 0.082.

Regarding GDVVLAAAYSHELPRYG [RPL5], the protein stability index was determined as 2.83 ± 0.073 (doa10∆), 2.95 ± 0.068 (pdr5∆), 2.99 ± 0.061 (san1∆) and 2.97 ± 0.074 (ubr1∆).

Consider GEGERFTVDKKIAERSL [SKP1], for which the protein stability index worked out at 3.44 ± 0.12 (doa10∆), 3.38 ± 0.12 (pdr5∆), 3.36 ± 0.12 (san1∆) and 3.37 ± 0.24 (ubr1∆).

Turning to GEIIDISAFTQFLRLIF [ARP9], the protein stability index by setting is: (doa10∆) 2.45 ± 0.08; (pdr5∆) 2.23 ± 0.075; (san1∆) 2.59 ± 0.11; (ubr1∆) 2.94 ± 0.065.

Take GELEQAQAWINLGEYYA [RPN7]: the protein stability index runs as follows: (doa10∆) 3.58 ± 0.28; (pdr5∆) 3.03 ± 0.098; (san1∆) 3.33 ± 0.1; (ubr1∆) 3.26 ± 0.057.

On to GELKRGNESVKPQFENH [MED11], for which the protein stability index came to 3.34 ± 0.18 (doa10∆), 3.21 ± 0.089 (pdr5∆), 2.98 ± 0.11 (san1∆) and 2.97 ± 0.16 (ubr1∆).
